Patent US20160312212A1 (ROCHE SEQUENCING SOLUTIONS, published 2016)
Where no end group is shown, it is not given here. The star is where a group is joined. Biotin = O=C1N[C@H]2[C@H](CS[C@H]2CCCCC(=O)*)N1

Molecular target: Thrombin (UniProt P00734 328-622)
Assay: SPR (Biacore X100), multiple-cycle kinetics; biotinylated peptide on streptavidin chip, thrombin 0 to 50 nM as analyte
Procedure: Two peptides were further prepared (synthesized and purified by Peptide 2.0) with the following sequences: a) Biotin—[…] GCG (SEQ ID NO:367) and b) Biotin—[…] (SEQ ID NO:368). The binding affinities of each peptide towards thrombin were tested on a Biacore X100 system.
In brief, 50 ul of 100 ug/ml of streptavidin (in 10 mM NaAc, 0.1 mM EDTA, 1 mM NaCl, 1 mM DTT pH 4.6) was immobilized onto a sensor chip CM5 that was pre-activated with NHS/EDC at a flow rate of 5 μl/min. After ethanolamine deactivation, biotinylated peptides (10 ng/ml) were injected and captured. Following the standard protocol for multiple-cycle kinetics, a series of injections of thrombin were then performed at 0 nM, 3.125 nM, 6.25 nM, 12.5 nM, 25 nM and 50 nM. After each injection, the sensor surface was regenerated for 2 min with 10 mM Glycine-HCl, pH 1.7 (from GE). The sensogram was recorded (see FIG. 5) and kinetic constants were derived by global fitting to a 1:1 Langmuir binding model using the BIAcore X100 Evaluation Software.

B1: Biotin-GCTSVHQETKKYQSRDPGRLIFQSSYTYNYEHVDVWGCG (designed binder)
peptide: Biotin-GCTSVHQETKKYQSRDPGRLIFQSSYTYNYEHVDVWGCG
modifications: cysteine pairing not given here
notes: Synthetic peptide (Peptide 2.0), captured on a streptavidin CM5 chip; also called peptide a)
B1 was tested, and the “fold change in KD against the linear peptide without cow antibody scaffold sequences (SEQ ID NO:368)” value was > 40 fold.
